Measurements reported in PMC11485096.

Biological target: AtoB (Aspergillus ochraceus LZDX-32-15)
Assay: crystal structure

Work on AtoB (enzyme) yielded a stoichiometry N of 2.
